The results in this text go back to article doi:10.1101/2024.01.10.575067.

A word on the stoichiometry N: it is the number of molecules, sites or subunits per partner or assembly.

The test addresses tetra-Cys human GAPDH (TC-hGAPDH), bacterially expressed and purified (human) (UniProt P04406). Nature of the test: SEC.

“tetra-Cys human GAPDH (TC-hGAPDH), bacterially expressed and purified (from UniProt P04406 1-335) (enzyme)” gave a stoichiometry N of 4.
